The values below come from the supplement of paper PMC9428881.

± gives the standard error.

The data set can be described thus: background-corrected fluorescence of 3'-dye-labeled ssDNA relative to brightest sequence (3'-GCGCG) (fraction); higher = brighter dye fluorescence (less quenching). Summed up: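 Each of 1024 permuted pentamers was synthesized as single-stranded DNA on glass slides by light-directed phosphoramidite chemistry, with a 3' Cy3 or Cy5 dye alongside. Arrays were scanned at 532 or 635 nm before and after overnight deprotection with ethylenediamine/ethanol. Values average 10 features per array across at least 3 syntheses. The fluorescence readout, with unlabeled-oligo background removed, is given relative to the brightest sequence.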

Turning to “TTTTTTCATGATGCTGATGATTTTTTTTTTTTTTTGCACC [CCACG]”, the background-corrected fluorescence runs as follows: (dye: Cy3 (3' terminal)) 0.391 ± 0.024; (dye: Cy5 (3' terminal)) 0.28 ± 0.022.
The matching figures for “TTTTTTCATGATGCTGATGCTTTTTTTTTTTTTTTGCACA [ACACG]”: 0.483 ± 0.025 and 0.375 ± 0.026.
The matching figures for “TTTTTTCATGATGCTGCGCATTTTTTTTTTTTTTTGCAAT [TAACG]”: 0.53 ± 0.018 and 0.406 ± 0.027.
The matching figures for “TTTTTTCATGATGCTGCTCATTTTTTTTTTTTTTTGCAAG [GAACG]”: 0.503 ± 0.04 and 0.422 ± 0.029.
For the sequence “TTTTTTCATGATGCTGCTGATTTTTTTTTTTTTTTGCAAC [CAACG]”, the background-corrected fluorescence (dye: Cy3 (3' terminal)) worked out at 0.469 ± 0.014 and the background-corrected fluorescence (dye: Cy5 (3' terminal)) amounted to 0.319 ± 0.017.
The sequence “TTTTTTCATGATGCTGCTGCTTTTTTTTTTTTTTTGCAAA [AAACG]” returned a background-corrected fluorescence (dye: Cy3 (3' terminal)) of 0.599 ± 0.028 and a background-corrected fluorescence (dye: Cy5 (3' terminal)) of 0.497 ± 0.03.
For “TTTTTTCATGCGCAGCAGCATTTTTTTTTTTTTTTGATTT [TTTAG]” the same measures were 0.531 ± 0.03 and 0.383 ± 0.029.
The matching figures for “TTTTTTCATGCGCAGCATCATTTTTTTTTTTTTTTGATTG [GTTAG]”: 0.543 ± 0.0077 and 0.355 ± 0.024.
The matching figures for “TTTTTTCATGCGCAGCATGATTTTTTTTTTTTTTTGATTC [CTTAG]”: 0.451 ± 0.026 and 0.317 ± 0.02.
“TTTTTTCATGCGCAGCATGCTTTTTTTTTTTTTTTGATTA [ATTAG]” displayed a background-corrected fluorescence (dye: Cy3 (3' terminal)) of 0.547 ± 0.022 and a background-corrected fluorescence (dye: Cy5 (3' terminal)) of 0.424 ± 0.034.
As for “TTTTTTCATGCGCATCAGCATTTTTTTTTTTTTTTGATGT [TGTAG]”, the background-corrected fluorescence was found to be 0.653 ± 0.025 (dye: Cy3 (3' terminal)) and 0.478 ± 0.04 (dye: Cy5 (3' terminal)).
The matching figures for “TTTTTTCATGCGCATCATCATTTTTTTTTTTTTTTGATGG [GGTAG]”: 0.62 ± 0.012 and 0.482 ± 0.024.
The matching figures for “TTTTTTCATGCGCATCATGATTTTTTTTTTTTTTTGATGC [CGTAG]”: 0.522 ± 0.031 and 0.425 ± 0.03.
The matching figures for “TTTTTTCATGCGCATCATGCTTTTTTTTTTTTTTTGATGA [AGTAG]”: 0.653 ± 0.035 and 0.518 ± 0.062.
Take “TTTTTTCATGCGCATGAGCATTTTTTTTTTTTTTTGATCT [TCTAG]”: the background-corrected fluorescence turned out to be 0.456 ± 0.055 (dye: Cy3 (3' terminal)) and 0.354 ± 0.017 (dye: Cy5 (3' terminal)).
The matching figures for “TTTTTTCATGCGCATGATCATTTTTTTTTTTTTTTGATCG [GCTAG]”: 0.545 ± 0.016 and 0.41 ± 0.025.
“TTTTTTCATGCGCATGATGATTTTTTTTTTTTTTTGATCC [CCTAG]”: the background-corrected fluorescence (dye: Cy3 (3' terminal)) turned out to be 0.398 ± 0.022 and the background-corrected fluorescence (dye: Cy5 (3' terminal)) is 0.294 ± 0.027.
For “TTTTTTCATGCGCATGATGCTTTTTTTTTTTTTTTGATCA [ACTAG]” the same measures were 0.535 ± 0.034 and 0.43 ± 0.022.
The matching figures for “TTTTTTCATGCGCATGCGCATTTTTTTTTTTTTTTGATAT [TATAG]”: 0.532 ± 0.024 and 0.382 ± 0.018.
Sequence “TTTTTTCATGCGCATGCTCATTTTTTTTTTTTTTTGATAG” displayed a background-corrected fluorescence (dye: Cy3 (3' terminal)) of 0.526 ± 0.03 and a background-corrected fluorescence (dye: Cy5 (3' terminal)) of 0.425 ± 0.049.
For “TTTTTTCATGCGCATGCTGATTTTTTTTTTTTTTTGATAC [CATAG]” the same measures were 0.448 ± 0.026 and 0.334 ± 0.024.
For “TTTTTTCATGCGCATGCTGCTTTTTTTTTTTTTTTGATAA [AATAG]” the same measures were 0.587 ± 0.042 and 0.452 ± 0.031.
The matching figures for “TTTTTTCATGCTCAGCAGCATTTTTTTTTTTTTTTGAGTT”: 0.621 ± 0.031 and 0.422 ± 0.024.
For “TTTTTTCATGCTCAGCATCATTTTTTTTTTTTTTTGAGTG [GTGAG]”, the background-corrected fluorescence was 0.578 ± 0.031 (dye: Cy3 (3' terminal)) and 0.445 ± 0.054 (dye: Cy5 (3' terminal)).
For “TTTTTTCATGCTCAGCATGATTTTTTTTTTTTTTTGAGTC [CTGAG]” the same measures were 0.469 ± 0.015 and 0.359 ± 0.017.
For “TTTTTTCATGCTCAGCATGCTTTTTTTTTTTTTTTGAGTA [ATGAG]” the same measures were 0.603 ± 0.026 and 0.486 ± 0.035.
For “TTTTTTCATGCTCATCAGCATTTTTTTTTTTTTTTGAGGT [TGGAG]” the same measures were 0.708 ± 0.038 and 0.56 ± 0.05.
On to “TTTTTTCATGCTCATCATCATTTTTTTTTTTTTTTGAGGG [GGGAG]”, for which the background-corrected fluorescence is 0.759 ± 0.02 (dye: Cy3 (3' terminal)) and 0.553 ± 0.041 (dye: Cy5 (3' terminal)).
The matching figures for “TTTTTTCATGCTCATCATGATTTTTTTTTTTTTTTGAGGC [CGGAG]”: 0.585 ± 0.015 and 0.465 ± 0.033.
For “TTTTTTCATGCTCATCATGCTTTTTTTTTTTTTTTGAGGA [AGGAG]” the same measures were 0.747 ± 0.023 and 0.669 ± 0.059.
“TTTTTTCATGCTCATGAGCATTTTTTTTTTTTTTTGAGCT [TCGAG]” gave a background-corrected fluorescence (dye: Cy3 (3' terminal)) of 0.559 ± 0.024 and a background-corrected fluorescence (dye: Cy5 (3' terminal)) of 0.41 ± 0.022.
For “TTTTTTCATGCTCATGATCATTTTTTTTTTTTTTTGAGCG [GCGAG]” the same measures were 0.654 ± 0.03 and 0.526 ± 0.059.
The matching figures for “TTTTTTCATGCTCATGATGATTTTTTTTTTTTTTTGAGCC [CCGAG]”: 0.425 ± 0.012 and 0.312 ± 0.029.
The matching figures for “TTTTTTCATGCTCATGATGCTTTTTTTTTTTTTTTGAGCA [ACGAG]”: 0.585 ± 0.025 and 0.43 ± 0.035.
Sequence “TTTTTTCATGCTCATGCGCATTTTTTTTTTTTTTTGAGAT [TAGAG]” displayed a background-corrected fluorescence (dye: Cy3 (3' terminal)) of 0.578 ± 0.051 and a background-corrected fluorescence (dye: Cy5 (3' terminal)) of 0.439 ± 0.023.
The matching figures for “TTTTTTCATGCTCATGCTCATTTTTTTTTTTTTTTGAGAG”: 0.6283 ± 0.0056 and 0.492 ± 0.024.
For “TTTTTTCATGCTCATGCTGATTTTTTTTTTTTTTTGAGAC [CAGAG]” the same measures were 0.476 ± 0.015 and 0.357 ± 0.018.
Turning to “TTTTTTCATGCTCATGCTGCTTTTTTTTTTTTTTTGAGAA [AAGAG]”, the background-corrected fluorescence amounted to 0.645 ± 0.032 (dye: Cy3 (3' terminal)) and 0.513 ± 0.026 (dye: Cy5 (3' terminal)).
“TTTTTTCATGCTGAGCAGCATTTTTTTTTTTTTTTGACTT [TTCAG]” showed a background-corrected fluorescence (dye: Cy3 (3' terminal)) of 0.501 ± 0.016 and a background-corrected fluorescence (dye: Cy5 (3' terminal)) of 0.401 ± 0.021.
The matching figures for “TTTTTTCATGCTGAGCATCATTTTTTTTTTTTTTTGACTG [GTCAG]”: 0.511 ± 0.03 and 0.39 ± 0.032.
For “TTTTTTCATGCTGAGCATGATTTTTTTTTTTTTTTGACTC [CTCAG]” the same measures were 0.419 ± 0.021 and 0.317 ± 0.028.
For “TTTTTTCATGCTGAGCATGCTTTTTTTTTTTTTTTGACTA [ATCAG]” the same measures were 0.491 ± 0.021 and 0.416 ± 0.029.
Consider “TTTTTTCATGCTGATCAGCATTTTTTTTTTTTTTTGACGT [TGCAG]”, for which the background-corrected fluorescence by setting is: (dye: Cy3 (3' terminal)) 0.601 ± 0.016; (dye: Cy5 (3' terminal)) 0.474 ± 0.028.
